Test results taken from paper PMC3470943, “Identification of BACE2 as an avid ß-amyloid-degrading protease” (Molecular Neurodegeneration, 2012).

Columns and labels:
[1] = test system: Aß40 levels produced by CHO cells co-transfected with human APP-AP; assay: Functional cDNA screen for Aß-lowering proteases, co-transfection with APP-AP; assay type: cell-based, CHO cells (rodent cell line); details: protease cDNA 100 ng/well co-transfected with APP-AP 60 ng/well; 24 h conditioned medium; normalized to intra-plate controls; quadruplicate
Protocol: A library of 352 full-length, sequence verified, human cDNAs encoding diverse members of all protease classes was purchase from a commercial source (OriGene Technologies, Inc.) in 96-well format (100 ng/well). For negative and positive controls, a subset of blank wells on each plate were supplemented with empty vector or a construct expressing a well-established AßDP, human ECE1b, respectively (100 ng/well). As a source of human Aß and also as a transfection control, each well was cotransfected with a hybrid construct, APP-AP (60 ng/well), comprised of a vector expressing wild-type human APP fused at its N-terminus with alkaline phosphatase (AP). Additional blank wells were left untreated for cell-free background controls. […]
Following heat treatment to inactivate endogenous phosphatases (65°C for 15 min) present in the media, conditioned media (30 μL/well) was added to 96-well plates containing AP substrate, 4-nitrophenylphosphate (170 μL/well, 2 mg/mL), dissolved in AP buffer (1 M diethanolamine, 0.5 mM MgCl2, 10 mM L-homoarginine, pH 9.8). Plates were incubated for 30 min and AP activity was determined from absorbance (OD405) using a SpectraMax® M5^e multilabel plate reader (Molecular Devices).
Aβ levels were quantified using a sandwich ELISA system based on antibody pairs 33.1.1/13.1.1 for Aβ40 and 2.1.3/4 G8 for Aβ42 as described previously. […]

[2] = test system: Aß (fluorescent substrate FAβB); assay: Fluorescence polarization-based Aß degradation assay; assay type: biochemical; details: 37°C
Protocol: The kinetics of Aβ40 and Aβ42 degradation by BACE2 were determined using freshly prepared, monomeric Aβ peptides separated from aggregated species by size-exclusion chromatography and characterized as described. Aβ peptides were diluted in neutral Dilution Buffer (20 mM Tris, pH 8.0 supplemented with 0.1% BSA) and reactions were initiated by transfer into 20 times more volume of Assay Buffer supplemented with purified recombinant BACE2 (R&D Systems, nominal concentration 1 or 5 nM) or, as a control for non-specific loss of Aβ, the latter buffer lacking BACE2. Where required, reactions were terminated by supplementation with protease inhibitor cocktail and adjustment to neutral pH. For ELISA-based experiments, Aβ42 and Aβ40 were quantified using the sandwich ELISAs described above. […] For determination of the pH dependence of Aβ degradation, experiments were carried same as described above, using Assay Buffer at different pH values (3.0, 3.5, 4.0, 4.5, 5.0, 5.5). The reactions were stopped at 10 min and the remaining 200nM of Aβ was determined using a well-characterized fluorescence polarization-based activity Aß degradation assay, as described. […] The degree of Aβ hydrolysis was immediately determined using a polarization-based Aß degradation assay. […]

[3] = test system: pre-formed fibrils of Aß42; assay: Thioflavin T fluorescence of pre-formed Aß42 fibrils incubated with BACE2; assay type: biochemical; details: BACE2 10 nM, 37°C, up to 3 d / 5 d (legend Figure 2D), 3 replicates
Protocol: Figure 2 BACE2 degrades Aß in vitro. A, Percent Aß remaining following incubation with different concentrations of recombinant BACE2 for various lengths of time. Data are mean ± SEM of 4 replicates, normalized to protease-free controls. B, Comparison the relative Aß-degrading ability of recombinant BACE2 vs. BACE1. Note that 24 h incubation with BACE1 was required to achieve approximately the same extent of degradation as effected by BACE2 in 10 min. Data are mean ± SEM of 3 replicates, normalized to protease-free controls. C, BACE2 activity is pH dependent. Percent Aß degradation catalyzed by equivalent amounts of BACE2 at different pH values. Data are mean ± SEM of 4 replicates. […] Data are mean ± SEM of 3 replicates.
Individual AßDPs can be categorized in terms of their ability or inability to degrade fibrillar forms of Aß. Many well-established AßDPs, such as IDE and NEP, avidly degrade monomeric Aß but cannot degrade fibrillar forms and are therefore categorized as pure peptidases. Others, such as plasmin, degrade Aß fibrils and thus can also be categorized as fibrilases.

[4] = test system: net Aß40 and Aß42 levels of CHO cells expressing APP-AP; assay: Confirmation: co-transfection of BACE2 or BACE1 cDNA with APP-AP, Aß40 and Aß42 ELISA; assay type: cell-based; details: CHO cells co-transfected with APP-AP, 4 replicates, normalized to vector-only controls
Protocol: Figure 1 Overview and outcome of functional screening for novel Aß-lowering proteases. A, Cartoon illustrating the overall design of the screen. Briefly, an arrayed collection of 352 protease-encoding cDNAs was cotransfected into CHO cells together with an APP-AP fusion construct. Following a medium change and overnight incubation, Aß40 levels, AP activity, and cytotoxicity (via MTT assay) were analyized in the resulting conditioned media. B, Results of the screen, expressed as [Aß40]/AP ratios normalized to intraplate controls. Data are mean of 4 replicates. Note that the largest decrease in Aß levels by far was acheived by BACE2. C, Confirmation of the results of the screen. Following scale-up and sequence verification, cDNAs encoding BACE2 and its homolog, BACE1, were cotransfected together with APP-AP into CHO cells. […]
Aβ levels were quantified using a sandwich ELISA system based on antibody pairs 33.1.1/13.1.1 for Aβ40 and 2.1.3/4 G8 for Aβ42 as described previously. Conditioned media were supplemented with Complete^TM Protease Inhibitor Cocktail (Roche) just after collection and analyzed immediately. For experiments quantifying intracellular Aß, cells were plated in 96-well plates (2 x 10^4 cells per well) and transfected with BACE2-encoding cDNA or empty vector, washed, then incubated with 400 nM synthetic Aß for 6 h. […]

| Molecule | decrease in normalized Aß levels ([Aß40]/AP ratio) [1] | pH of maximal Aß40 hydrolysis ([2]; Assay Buffer at pH 3.0, 3.5, 4.0, 4.5, 5.0, 5.5, 200 nM Aβ, stopped at 10 min, 4 replicates) | effect on aggregation of pre-formed Aß42 fibrils [3] | effect of overexpression on net Aß40 and Aß42 levels [4] | efficiency of Aß degradation, fold lower than that of BACE2 ([2]; BACE1 24 h vs BACE2 10 min for a similar extent of degradation, Assay Buffer pH 4.0) |
| --- | --- | --- | --- | --- | --- |
| BACE2: ß-site APP-cleaving enzyme-2, aspartyl protease; recombinant enzyme (R&D Systems) or transfected human cDNA (protein, UniProt Q9Y5Z0 63-518, looked up) Beta-secretase 2: ALEPALASPAGAANFLAMVDNLQGDSGRGYYLEMLIGTPPQKLQILVDTGSSNFAVAGTPHSYIDTYFDTERSSTYRSKGFDVTVKYTQGSWTGFVGEDLVTIPKGFNTSFLVNIATIFESENFFLPGIKWNGILGLAYATLAKPSSSLETFFDSLVTQANIPNVFSMQMCGAGLPVAGSGTNGGSLVLGGIEPSLYKGDIWYTPIKEEWYYQIEILKLEIGGQSLNLDCREYNADKAIVDSGTTLLRLPQKVFDAVVEAVARASLIPEFSDGFWTGSQLACWTNSETPWSYFPKISIYLRDENSSRSFRITILPQLYIQPMMGAGLNYECYRFGISPSTNALVIGATVMEGFYVIFDRAQKRVGFAASPCAEIAGAAVSEISGPFSTEDVASNCVPAQSLSEPILWIVSYALMSVCGAILLVLIVLLLLPFRCQRRPRDPEVVNDESSLVRHRWK | 97 ± 1.2% | 3.5 | No significant reduction in aggregation | decreased the levels of both Aβ40 and Aβ42 |  |
| BACE1: ß-site APP-cleaving enzyme-1, homolog of BACE2; recombinant enzyme or transfected cDNA (protein, UniProt P56817 46-501, looked up) Beta-secretase 1: ETDEEPEEPGRRGSFVEMVDNLRGKSGQGYYVEMTVGSPPQTLNILVDTGSSNFAVGAAPHPFLHRYYQRQLSSTYRDLRKGVYVPYTQGKWEGELGTDLVSIPHGPNVTVRANIAAITESDKFFINGSNWEGILGLAYAEIARPDDSLEPFFDSLVKQTHVPNLFSLQLCGAGFPLNQSEVLASVGGSMIIGGIDHSLYTGSLWYTPIRREWYYEVIIVRVEINGQDLKMDCKEYNYDKSIVDSGTTNLRLPKKVFEAAVKSIKAASSTEKFPDGFWLGEQLVCWQAGTTPWNIFPVISLYLMGEVTNQSFRITILPQQYLRPVEDVATSQDDCYKFAISQSSTGTVMGAVIMEGFYVVFDRARKRIGFAVSACHVHDEFRTAAVEGPFVTLDMEDCGYNIPQTDESTLMTIAYVMAAICALFMLPLCLMVCQWRCLRCLRQQHDDFADDISLLK |  |  |  | no effect | ~ 150 fold |
